Results: US8168160B2, “Anti-inflammatory fusion protein” (Eberhard-Karls-Universität Tübingen, priority 2006, dated 2012)

How the values were obtained:
[1] = test system: foam cell formation from CD34+ stem cells co-cultivated with thrombocytes; test: Foam cell formation by co-cultivation of CD34+ stem cells with thrombocytes, counted by phase contrast microscopy; type: cell-based, human
Description: To isolate human thrombocytes venous blood was withdrawn from healthy test persons and collected into acidic citrate dextrose (ACD) buffer. After the centrifugation at 430 g for 20 minutes the platelet-rich plasma (PRP) was removed, added to Tyrodes HEPES buffer (2.5 mM HEPES, 150 mM NaCl, 1 mM […], 2.5 mM NaHCO3, 0.36 mM NaH2PO4, 5.5 mM glucose, 1 mg/ml BSA, pH 6.5) and centrifuged at 900 g for 10 minutes. After the removal of the supernatant the thrombocyte containing pellet was suspended in Tyrodes HEPES buffer (pH 7.4).
Human CD34^+ cells were isolated from human cord blood. This was obtained after the approval of the local ethics committee from healthy women immediately after the birth of a child. At least 95% of the isolated cells were positive for CD34^+ which was confirmed by means of flow cytometry analysis after each isolation. Human mononuclear cells were also obtained from cord blood by density gradient centrifugation on the Biocoll separation solution (BIOCROM Berlin, Germany) at 600 g for 15 minutes. CD34^+ cells were enriched by immunoaffinity selection (CD34 progenitor cell isolation kit; Milteenyi Biotec, Bergisch Gladbach, Germany) according to the manual of the producer. In the following the cells were incubated on 96 well plates which were covered with 0.2% gelatine. For the cultivation of the cells IMDM with glutamax, supplemented with 5% heat-inactivated fetal calf serum, […] penicillin-streptomycin, 1% MEM vitamins and 1% non-essential amino acids were used, all purchased from Gibco (Invitrogen, Karlsruhe, Germany). CD34^+ progenitor cells (50000 cells) were co-cultivated at 37° C. and 5% CO2 with thrombocytes (2×10^8-ml) in 96 well plates which were pre-covered with 0.2% gelatine. The formation of foam cells was counted in six windows by means of phase contrast microscopy.
Foam cells were produced by co-incubation of CD34^+ stem cells with thrombocytes for 10 days in vitro. […] In the following it was microscopically analyzed whether the foam cell formation was inhibited by the incubation with the CD68-Fc homodimers. […]

MMP-9 = MMP-9 expression in the supernatant of foam cells; type: cell-based, human
Description: Moreover the method of ROS (“Reactive Oxygen Species”) measurement was used. Typically in the course of an inflammation process monocytes infiltrate the vascular wall, there differentiate into macrophages and produce cytokines, proteases such as the matrix metalloproteinase (MMP) and complement factors, but also free oxidized radicals, i.e. ROS. For the foam cells resulting from the co-incubation of CD34^+ stem cells with thrombocytes in vitro it was detected that they release ROS and also produce matrix metalloproteinase 9 (MMP-9).
The bands correspond to the expression level of MMP-9. In the corresponding lanes the following samples were loaded: 1. control CD34, 2. control CD34, 3. control protein 100 µg/ml, 4. control protein 400 μg/ml, 5. CD68-Fc homodimer 100 µg/ml, 6. CD68-Fc homodimer 200 µg/ml, 7. CD68-Fc homodimer 400 µg/ml, 8. Fluvastatin 1 μM.

[2] = test system: atherosclerotic plaque tissue from the carotid of patients; test: Specific Fc-ELISA on atherosclerotic plaques in vitro; type: binding; settings: disintegrated, surface-dried human carotid plaques (FIG. 5A)
Description: (§1) Atherosclerotic plaques from the carotid of patients, removed within the context of a surgery, were disintegrated, suspended, transferred to culture plates and surface-dried. Then a specific ELISA against the Fc portion of the CD68 or GPVI or pure Fc, respectively, was performed. In a parallel immunohistological analysis of human tissue from thrombus endarterectomy preparations of the Arteria carotis were performed.

[3] = test system: atherosclerotic plaque tissue; test: Immunohistological analysis of thrombus endarterectomy preparations of the Arteria carotis; type: binding; settings: human thrombus endarterectomy preparations of Arteria carotis (FIG. 5B)
Description: as §1

[4] = test system: atherosclerotic vessels of Apo E mice; test: In vivo application of J124-labeled CD68-Fc, ex vivo autoradiography of vessels; settings: A. carotis; Apo E mice in relation to wild type (FIG. 6)
Description: Furthermore an in vivo application of J124-labeled CD68-Fc in atherosclerotic Apo E mice and in wild type mice was performed. J124-labeled CD68-Fc was administered into 24 weeks old atherosclerotic mice or in control wild type mice without any significant atherosclerosis. The organs were then removed and the A. carotis on both sides and the aortic arch were analyzed by autoradiography ex vivo.
A staining with oil-red and a corresponding autoradiography is shown in partial figure (B).

[5] = increasing concentrations (summary statement)

binding to atherosclerotic plaque tissue (Fc-ELISA) [2]: significant binding | binding to atherosclerotic plaque tissue (immunohistology) [3]: significant binding
B1: CD68-Fc homodimer: Fusion of extracellular domain of human CD68 with mutated human IgG1 Fc via three amino acid connecting element (SEQ ID No. 6), secreted as disulfide-linked homodimer (protein)
chain: NDCPHKKSATLLPSFTVTPTVTESTGTTSHRTTKSHKTTTHRTTTTGTTSHGPTTATHNPTTTSHGNVTVHPTSNSTATSQGPSTATHSPATTSHGNATVHPTSNSTATSPGFTSSAHPEPPPPSPSPSPTSKETIGDYTWTNGSQPCVHLQAQIQIRVMYTTQGGGEAWGISVLNPNKTKVQGSCEGAHPHLLLSFPYGHLSFGFMQDLQQKVVYLSYMAVEYNVSFPHAAQWTFSAQNASLRDLQAPLGQSFSCSNSSIILSPAVHLDLLSLRLQAAQLPHTGVFGQSFSCPSDRSGGRESKSCDKTHTCPPCPAPEAAAAPSVFLFPPKPKDTLMISRTPEVTCVVVDVSHEDPEVKFNWYVDGVEVHNAKTKPREEQYNSTYRVVSVLTVLHQDWLNGKEYKCKVSNKALPASIEKTISKAKGQPREPQVYTLPPSRDELTKNQVSLTCLVKGFYPSDIAVEWESNGQPENNYKTTPPVLDSDGSFFLYSKLTVDKSRWQQGNVFSCSVMHEALHNHYTQKSLSLSPGK
modifications: homodimer; Recombinant CD68-Fc fusion protein
foam cell formation ([1]; co-incubation of CD34+ stem cells with thrombocytes for 10 days in vitro, microscopic analysis (FIG. 3B)): inhibited the formation of the foam cells | foam cell formation, dependence on dosage ([1]; concentration of 400 μg/ml, pure Fc as control (FIG. 3C)): virtually completely inhibited | formation of foam cells in co-cultivation assays in vitro [1, 5]: significant inhibition of the formation of foam cells | expression of MMP-9 in the supernatant of foam cells (MMP-9; 100, 200 and 400 μg/ml (lanes 5, 6, 7), in relation with control protein (FIG. 4)): clear inhibition of the formation of MMP-9 | secretion of MMP-9 by foam cells (MMP-9; [5]): can be inhibited | accumulation in vessels (autoradiography ex vivo) [4]: No significantly increased accumulation
